From the supplement of paper PMC9170038

Test system: K4 kissing-loop RNA reporter
Test: apparent KD of K4 kissing-loop reporter; higher = weaker reporter binding
Conditions: Eterna round: R107
Procedure: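 RNA-MaP round R107: designed RNA switches with theophylline, tryptophan, arginine or FMN aptamers are transcribed on-chip within common flanks. They are titrated with a labelled K4 kissing-loop RNA reporter in RNA-MaP buffer (100 mM Tris pH 7.5, 80 mM KCl, 4 mM MgCl2), without ligand or with the indicated ligand. Median apparent KD per design.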

[1] = input ligand: theophylline 20 uM
[2] = input ligand: tryptophan 2.4 mM
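Further: bound reporter read as fluorescence of individual clusters on recovered sequencing chips by microscopy, with normalized cluster intensities fitted with a binding model.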

Row | Sequence | apparent KD of K4 kissing-loop reporter (input ligand: FMN 200 uM) [nM] | apparent KD of K4 kissing-loop reporter (input ligand: arginine 13.2 mM) [nM] | apparent KD of K4 kissing-loop reporter (input ligand: none) [nM] | apparent KD of K4 kissing-loop reporter [1] [nM] | apparent KD of K4 kissing-loop reporter [2] [nM]
1 | AUUUUAUUAACUGAUACCAGACUUAAUGAUUUGUAAAUUACUAGUGAUGUUAGUGAUUCUGUCCCUUGGCAGCAGUAUUUAUUUA [JR_ExcTheophyB_Sub013] | 76.2 | 85.6 | 79.2 | 87.6 | 69.4
2 | UGUGAUGUGUAGAGUGAUGUUUUGAAGGAUACCAGAGUGUUGUUAUUCCCUUGGCAGCUUGAGUGAUGUUUGAUGUUGUUGUUGU [efvrmullin] | 228 | 120 | 194 | 133 | 152
3 | GGAUAGGACUGAGGAUAUGGGCUAGGCAAGAAUAACUUGUCUAGCAAAUCCAUGAGGAGUGAUGUUCCAGAAGGCGGUCCUAUCG [FmnBX 1 U10+G76] | 601 | 127 | 131 | 173 | 231
4 | UGAUUGCCAGUGAUGUUGGCAGGGUCUGAAGGAGCGCGUGAAAACGCAGGUAGGUCGCAGUAUGGUGCCAAUUGAUCGAAAGAUC [KL-XArg-A3] | 226 | 186 | 223 | 210 | 170
5 | GUAGAUAGGCUACAUCUCUAGUCUAUAGACUAGGAUAUCAGGAAACUGAGAAGGAGUCUCAUUGGAGUGAUGUUCCAAGAAUAAU [KL-SSFMN-A15] | 120 | 115 | 114 | 133 | 85.1
6 | AAUUUAUGAUCUGAUACCAGACUUUAUCUUGUUUAUAAGUCAAGUGAUGUUUGACUAUUAGUCCCUUGGCAGCAGUAUUGUUUAA [#17 K4 Theophylline B Same State] | 243 | 268 | 290 | 208 | 239
7 | GUUACGCAUGGAAGGAGCGCUCUCCGGUUGAUCGACACAGUGAUGUUGUGGUUCUACCGUAAGCAGGUAGGUCGCCAUGUGUAAC [Ex Arginine B K4 14] | 730 | 449 | 936 | 966 | 828
8 | UUGACCAAAUUCCGGUGAUCAUCGCCGCCGCGAGGACCGGUACGGCCGCCACUCGUCCCUAUGCUCGGAGUAGUGAUGUUAUUCA [theeternabot_sameState_KL_Trp_A_43] | 557 | 197 | 529 | 280 | 574
9 | CACCAUGAAUUCUCUAGGAGUGAUGUUUUUCGAGGACCGGUACGGCCGCCACUCGGACGAGGAACGUGGGAGCGGCGAAAAGACU [xzzmullin] | 70.6 | 64 | 285 | 83.9 | 121
10 | CCUAUCUCAUACGAUACCAGUCAACGAGUGAUGUUCGAAUAAAUAAAUUUGCCAUAUAAUGACCCUUGGCAGCGUAUGGGAUAGG [Ex Theophylline B K4 14] | 352 | 373 | 337 | 431 | 334
11 | AGUGAUGUUUUUUUUAAGAGUGAUGUUUUUCGAGGACCGGUACGGCCGCCACUCGAGUGAUGAGUGCGGUGUUGUGAUGUUUAGU [ewmullin] | 606 | 402 | 530 | 475 | 467
12 | AAAUAAAGCAGUCAGCCAGUGAUGUUGGAAGGAGCGUGCGAAAGCACAGGUAGGUCGCCAAAACCUAAUACUGGCUGCUAAAUAA [#SwitchBubble 1 #K4Early] | 979 | 643 | 773 | 753 | 542
13 | UGUAAGUGUCAGCGAGUGAUGUUCGACGAUACCAGACUCGAUAGAGUCCCUUGGCAGCGUAAUGCAUGCCAAACUGGCACAUACU [#SwitchBubble 11 #K4Early] | 453 | 438 | 560 | 528 | 434
14 | AAGAGUUGACGAAAAGUCAACUCACGAGAAGGAGCGCACGAAAGUGCAGGUAGGUCGCUCAGUCCAGUGAUGUUGGAACAUAAAA [#OpenEnded 7] | 66.2 | 114 | 96.1 | 110 | 73.3
15 | GCCGUAGAUUGAAGGAGCGGUAUGGGCGUUGGCUGAGUGAUGUUCAGGAAAAGUGGCUUCUACCAGGUAGGUCGCAAUCUACGGC | 133 | 110 | 130 | 139 | 109
16 | GGCAGUGAUGUUGCCUAAGCAAUGCAUGCGGAGGAUAUUCGUUUGGGAAGAAGGCCGCAGCGUUCUCUCGAGUGAUGUUCGAGUA [Same State FMN A GF 20] | 155 | 141 | 153 | 158 | 126

Row | Sequence | apparent KD of K4 kissing-loop reporter (input ligand: FMN 200 uM) [nM] | apparent KD of K4 kissing-loop reporter (input ligand: arginine 13.2 mM) [nM] | apparent KD of K4 kissing-loop reporter (input ligand: none) [nM] | apparent KD of K4 kissing-loop reporter [1] [nM] | apparent KD of K4 kissing-loop reporter [2] [nM]
17 | AUUAAUAUCACGGCCGCCACUGUAUAUUGUUUUUAUAUUUAGAAUAAUUGCCAGUGAUGUUGGAACAGGACCGGGUGAGUUUAUA [#28 K4 Tryptophan B Same State] | 511 | 434 | 626 | 402 | 323
18 | AAAAUAAAGGAGUGAUGUUCCAUAUGUGAUACCAGCCACGAAAGUGGCCCUUGGCAGCACUGCCAAGUGGACGAAAACGUCCACA [#OpenEnded 5 #StaticStem #K4Early] | 125 | 162 | 141 | 160 | 113
19 | AAUGAGGACACUUGCAACAGUCCUCGAAUACGAGGACCGGUACGGCCGCCACUCGAUAACUUGCAGUGAUGUUGCAAGUAAGAAU [(T)''-(K)'-(T)'-(T1)-(T2)-(K1)-(K2)_Design2] | 227 | 201 | 207 | 258 | 311
20 | CCGGCCCGGCCGGAUACCAGUGCGCCGCUGUGAACUGCGGGCCCAGAGUGAUGUUCGGGACACCCUUGGCAGCCGCCUGGGUCGC [#2 Same State - Theophylline B Attempt #26 (HarryS)] | 358 | 380 | 444 | 325 | 341
21 | ACCAUCAAAGAUGGCCAGGACUCAACUGAUACCAGAGUGGAGACACUCCCUUGGCAGCAGGUGAGUGAUGUUCACGAGUCCUGGA [Omel KL Theo A SS B v9] | 1000 | 801 | 1140 | 599 | 740
22 | UCUCGGGCCAGUGAUGUUGGCGGCAAGUGGCGAGGACCGGUACGGCCGCCACUCGGCGCAGCAGCGGAGUGAUGUUUCGUGAGUA [Same State Tryptophan A GF 16] | 297 | 1240 | 1230 | 387 | 675
23 | AAGCCAGUGAUGUUGGCAAAAUAAACUGAAGGAGCGCGUGAAAACGCAGGUAGGUCGCAGAACCUUGCCAACUAACACGAAAGUG [Ex Arginine A K4 19] | 268 | 246 | 305 | 387 | 287
24 | GGAGGUUGGUGCGAUACCAGACCUGCAGUGAUGUUGCGCCAAAGUGAGUGAUGUUCACCGGUCCCUUGGCAGCGCGUCCCUUUAG [Same State Theophylline B GF 15] | 848 | 729 | 1190 | 707 | 860
25 | ACGUGCACCAGUGAUGUUGGAAAAUAUGAAGGAGCGGGAGAAAACCCAGGUAGGUCGCAUAAUAGCACGAGCCACGAAAGUGGCA | 191 | 81.4 | 122 | 196 | 107
26 | UGACUACAGGAAUAAUAAUCCUAGUGAUGUUAGGAUAUGCUGAUAAGCAGAAGGAACUGAGAUCGAAAGAUCUCAAAAGUAGUCU [FmnAX 28 Mat Inspired #SwitchBubble #StaticStem #K4Early] | 139 | 89.3 | 92.9 | 106 | 96.7
27 | CGAGAAAGAGCGACUGGCGAUCUGUCUGAAGGAGCGGGUGCUAGCCCAGGUAGGUCGCAGACCUUGACGCCAGUGAUGUUGGCGG [Ritiatso] | 220 | 180 | 208 | 252 | 177
28 | GCGCGGCCCAGUGAUGUUGGGCCUCGGAGACGAGGACCGGUACGGCCGCCACUCGUCCGCGCAGCUGAGGCAAAAGCCUCGGCAA [Omei KL Tryp A SS B v6] | 207 | 190 | 228 | 187 | 107
29 | UUUUAAAUGUCUGAUACCAGAGAAAAUUUAUGUAGUGAUGUUAUAUACAAAUUAAAUAAGCUCCCUUGGCAGCAGUAUUAAUUUU [AstrosExc-TheB#9] | 583 | 596 | 846 | 623 | 552
30 | UUUAUGAUGUCGGCCGCCACUGGAUUAAUAUGUGUGUAAUCUAGUUCUGAGUGAUGUUUAGAGUCCAGGACCGGGACAUUAGUUA [#12 K4 Tryptophan B Exclusion] | 719 | 476 | 652 | 832 | 700
31 | CCUAUCUCAUACGAUACCAGUGAAUUUAUAUUUAUUAGCAGUGAUGUUGCAUUCCAAGUACACCCUUGGCAGCGUAUGGGAUAGG [Ex Theophylline B K4 22] | 147 | 204 | 178 | 172 | 140
32 | AGAGAUAUAUGAGGAUAUGAGAUAGUUAAUGAGUGAGUUAUAGUGUUGUUUGGUUAGUGAUGUUAUUUAGAAGGCGUGAGUGAUG [immumullin] | 130 | 94.7 | 110 | 119 | 82.5
